# Numbering of substitutions follows the chain as printed. Ends that are not written are not given here.
# T1: STE2 receptor (Saccharomyces cerevisiae, UniProt D6VTK4)
# T1 construct: endogenous in cells; host or cells: S. cerevisiae MATa CY588 / CY1455
# T1 sequence (D6VTK4 1-431): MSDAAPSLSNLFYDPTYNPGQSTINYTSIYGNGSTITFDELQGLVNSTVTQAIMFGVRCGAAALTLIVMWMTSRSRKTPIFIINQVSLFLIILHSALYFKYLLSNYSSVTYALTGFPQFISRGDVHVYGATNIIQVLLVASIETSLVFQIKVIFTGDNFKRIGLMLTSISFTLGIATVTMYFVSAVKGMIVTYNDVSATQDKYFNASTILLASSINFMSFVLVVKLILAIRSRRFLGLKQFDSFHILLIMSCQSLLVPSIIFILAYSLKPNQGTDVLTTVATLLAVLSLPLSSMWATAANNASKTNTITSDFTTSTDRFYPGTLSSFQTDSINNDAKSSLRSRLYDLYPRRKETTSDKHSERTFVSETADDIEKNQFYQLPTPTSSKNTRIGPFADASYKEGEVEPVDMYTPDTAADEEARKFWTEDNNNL
# T2: yeast Gβγ (Saccharomyces cerevisiae, UniProt P18851+P18852)
# T2 construct: Endogenous Gβγ subunits will be provided by the yeast STE4 and STE18 loci; endogenous in cells; host or cells: S. cerevisiae gpa1 tester strains
# T2 sequence (P18851 1-423): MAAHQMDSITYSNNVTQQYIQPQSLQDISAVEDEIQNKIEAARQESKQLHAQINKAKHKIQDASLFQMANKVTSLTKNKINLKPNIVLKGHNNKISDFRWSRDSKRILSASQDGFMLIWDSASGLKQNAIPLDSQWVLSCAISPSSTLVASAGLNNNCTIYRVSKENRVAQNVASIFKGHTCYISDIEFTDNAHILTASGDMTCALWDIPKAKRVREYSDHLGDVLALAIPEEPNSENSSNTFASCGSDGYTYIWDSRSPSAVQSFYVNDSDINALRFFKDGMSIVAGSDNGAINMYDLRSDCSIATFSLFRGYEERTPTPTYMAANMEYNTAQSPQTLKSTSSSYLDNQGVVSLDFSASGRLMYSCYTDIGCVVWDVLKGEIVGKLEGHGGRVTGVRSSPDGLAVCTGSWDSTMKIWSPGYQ
# T2 sequence (P18852 1-107 limits assumed): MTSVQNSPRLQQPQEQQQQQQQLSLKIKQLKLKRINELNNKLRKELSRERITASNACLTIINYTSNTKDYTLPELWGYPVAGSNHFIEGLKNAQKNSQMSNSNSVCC
# B1: GPA41-Gαoa: first 41 amino acids of GPA1 fused to Gαoa (protein)
# chain: MGCTVSTQTIGDESDPFLQNKRANDVIEQSLQLEKQRDKNEVKLLLLGAGESGKSTIVKQMKIIHEDGFSGEDVKQYKPVVYSNTIQSLAAIVRAMDTLGIEYGDKERKADAKMVCDVVSRMEDTEPFSAELLSAMMRLWGDSGIQECFNRSREYQLNDSAKYYLDSLDRIGAADYQPTEQDILRTRVKTTGIVETHFTFKNLHFRLFDVGGQRSERKKWIHCFEDVTAIIFCVALSGYDQVLHEDETTNRMHESLMLFDSICNNKFFIDTSIILFLNKKDLFGEKIKKSPLTICFPEYTGPNTYEDAAAYIQAQFESKNRSPNKEIYCHMTCATDTNNIQVVFDAVTDIIIANNLRGCGLY
# B2: GPA41-Gαob: first 41 amino acids of GPA1 fused to Gαob (protein)
# chain: MGCTVSTQTIGDESDPFLQNKRANDVIEQSLQLEKQRDKNEVKLLLLGAGESGKSTIVKQMKIIHEDGFSGEDVKQYKPVVYSNTIQSLAAIVRAMDTLGIEYGDKERKADAKMVCDVVSRMEDTEPFSAELLSAMMRLWGDSGIQECFNRSREYQLNDSAKYYLDSLDRIGAADYQPTEQDILRTRVKTTGIVETHFTFKNLHFRLFDVGGQRSERKKWIHCFEDVTAIIFCVALSGYDQVLHEDETTNRMHESLKLFDSICNNKWFTDTSIILFLNKKDIFEEKIKKSPLTICFPEYTGPSAFTEAVAYIQAQYESKNKSAHKEIYTHVTCATDTNNIQFVFDAVTDVIIAKNLRGCGLY
# B3: GPA141-Gαi3: first 41 amino acids of GPA1 fused to human Gαi3 (protein)
# chain: MGCTVSTQTIGDESDPFLQNKRANDVIEQSLQLEKQRDKNEVKLLLLGAGESGKSTIVKQMKIIHE
# B4: GPA41-Gα16: first 41 amino acids of GPA1 fused to Gα16 (protein)
# chain: B3 chain with V42L, A49P, I57F, V58I, K62R, E66G
# Assays:
# [1] = biological target: T1, STE2 receptor; experiment: Autocrine MATa yeast (CY588/CY1455) growth on histidine-deficient medium plus aminotriazole, fus1-HIS3 readout; assay type: cell-based; conditions: for agonist activity on the STE2 receptor, α-Mid-5 library: CY1455, -His medium with 0.5 mM or 1 mM aminotriazole, starburst phenotype
# Description: A MATa strain designed for the expression of peptides in the context of MFα1 (i.e., using the MFα1 expression vector. Cadus 1215) has been constructed. The genotype of this strain, which we designate CY588, is MATa bar1 far1-1 fus1-HIS3 ste14::TRP1 ura3 trp1 leu2 his3. The bar1 mutation eliminates the strain's ability to produce a protease that degrades α-factor and that may degrade some peptides encoded by the cloned oligonucleotides; the far1 mutation abrogates the arrest of growth which normally follows stimulation of the pheromone response pathway; an integrated FUS1-HIS3 hybrid gene provides a selectable signal of activation of the pheromone response pathway; and, finally, the ste14 mutation lowers background of the FUS1-HIS3 readout. The enzymes responsible for processing of the MFα1 precursor in MATα cells are also expressed in MATa cells (Sprague and Thorner, in The Molecular and Cellular Biology of the Yeast Saccharomyces: Gene Expression, 1992. Cold Spring Harbor Press), therefore, CY588 cells should be able to secrete peptides encoded by oligonucleotides expressed from plasmid Cadus 1215.
# Experiments were performed to test: 1. the ability of Cadus 1215 to function as a vector for the expression of peptides encoded by synthetic oligonucleotides; 2. the suitability of the oligonucleotides, as designed, to direct the secretion of peptides through the α-factor secretory pathway; 3. the capacity of CY588 to secrete those peptides; and 4. the ability of CY588 to respond to those peptides that stimulate the pheromone response pathway by growing on selective media. These experi-ments were performed using an oligonucleotide which encodes the 13 amino acid α-factor; i.e., the degenerate sequence (NNN)n in the oligonucleotide cloned into Cadus 1215 (see above) was specified (n=13) to encode this pheromone. CY588 was transformed with the resulting plasmid (Cadus 1219), and transformants selected on uracil-deficient medium were transferred to histidine-deficient medium supplemented with a range of concentrations of aminotriazole (an inhibitor of the HIS3 gene product that serves to reduce background growth). […] CY588 is competent for the secretion of a peptide encoded by the (NNN)n sequence of the synthetic oligonucleotide cloned into and expressed from Cadus 1215; and 2. CY588 can, in an autocrine fashion, respond to a secreted peptide which stimulates its pheromone response pathway, in this case by α-factor binding to STE2. Additional experiments were performed to test the utility of autocrine yeast strains in identifying agonists of the Ste2 receptor from among members of two semi-random α-factor libraries, α-Mid-5 and MFα-8. α-Mid-5 Library
# To identity peptide members of the α-Mid-5 library that could act as agonists on the STE2 receptor. CY1455, a high transforming version of CY588, was electroporated to enhance uptake of α-Mid-5 DNA. Transformants were selected on uracil-deficient (-Ura) synthetic complete medium and were transferred to histidine-deficient (-His) synthetic complete medium supplemented with 0.5 mM or 1 mM aminotriazole.
# Yeast able to grow on -His+aminotriazole medium include (1) yeast which are dependent on the expression of an α-factor variant agonist and (2) yeast which contain mutations that result in constitutive signalling along the pheromone pathway. […] Thus a recognizable formation (termed a “starburst”) results, consisting of a central colony, growing by virtue of autocrine stimulation of the pheromone pathway, surrounded by satellite colonies, growing by virtue of paracrine stimulation of the pheromone pathway by the agonist peptide as that ptpetide diffuses radially fromn the central, secreting colony.
# In order to identify the peptide sequence responsible for this “starburst” phenomenon, yeast were transferred from the center of the “starburst” and streaks were made on -Ura medium to obtain single colonies. […]
# [2] = biological target: T2, yeast Gβγ; experiment: Coupling of Gα subunits and hybrids to yeast Gβγ: complementation of gpa1 growth arrest phenotype and fus1-HIS3 transcription; assay type: cell-based
# Description: We have tested the hypothesis that there are switch region determinants involved in the association of Gα with Gβγ by constructing a series of hybrid Gα proteins encoding portions of GPA1 and GαS in different combinations (FIG. 11).
# Preferably, levels of Gα and Gβγ subunits are balanced. For example, heterologous Gα subunits may be expressed from a low copy (CEN ARS) vector containing the endogenous yeast GPA1 promotor and the GPA1 3′ untranslated region. The minimum criterion, applied to a heterologous Gα subunit with respect to its ability to couple functionally to the yeast pheromone pathway, is that it complement a gpa1 genotype when expressed from the GPA1 promoter on low copy plasmids or from an integrated, single copy gene. In the work described in this application, all heterologous Gα subunits have been assayed in two biological systems.
Molecule,"agonist activity on the STE2 receptor, α-Mid-5 library [1]",functional complementation of the growth arrest phenotype of gpa1 strains [2],other results
WHWLRLQSGQPMY [M5],agonists,,
WHWLSLSPGQPMY [M1],agonists,,
WHWLRLSAGQPMY [M6],agonists,,
WHWLRLQPGQPMY [M9],agonists,,
WHWLSLVPGQPMY [M7],agonists,,
WHWLQLSAGQPMY [M4],agonists,,
Trp His Tip Leu Thr Leu MetAla Gly Gin Pro Met Tyr (WHWLTLMAGQPMY) [M3],agonists,,
WHWLSLDAGQPMY [M2],agonists,,
WHWLSLYPGQPMY [M8],agonists,,
GPA41-S: N-terminal 41 amino acids of GPA1 linked to Gαs sequence 42-394,,functionally complement,
"Trp His Trp Leu Gln Leu Lys Pro Gly Gln Pro Met Tyr (chain 1 WHWLQLKPGQPMY; chain 2 WHWLQLKPGQPMY) [α-factor, yeast tridecapeptide mating pheromone, reference compound]",,,"ability to grow on histidine-deficient media supplemented with aminotriazole (autocrine response, α-factor binding to STE2) ([1]; CY588 transformed with Cadus 1219, range of aminotriazole concentrations): ability to grow on histidine-deficient media supplemented with aminotriazole"
B1,,do not,
B2,,do not,
B3,,functionally complement,
B4,,functionally complement,

# From patent US7235648B1, “Yeast cells engineered to produce pheromone system protein surrogates, and uses therefor” (Cadus Technologies, Inc., priority 1993, dated 2007)
